Data taken from publication PMC7115876 (Nature, 2020).

Target: human β-arrestin 1 (L68C, R169E) (human, UniProt P49407 2-418, L68C | R169E)
Test: cryo-EM structure

human β-arrestin 1 (L68C, R169E), sequence (P49407 2-418 L68C/R169E): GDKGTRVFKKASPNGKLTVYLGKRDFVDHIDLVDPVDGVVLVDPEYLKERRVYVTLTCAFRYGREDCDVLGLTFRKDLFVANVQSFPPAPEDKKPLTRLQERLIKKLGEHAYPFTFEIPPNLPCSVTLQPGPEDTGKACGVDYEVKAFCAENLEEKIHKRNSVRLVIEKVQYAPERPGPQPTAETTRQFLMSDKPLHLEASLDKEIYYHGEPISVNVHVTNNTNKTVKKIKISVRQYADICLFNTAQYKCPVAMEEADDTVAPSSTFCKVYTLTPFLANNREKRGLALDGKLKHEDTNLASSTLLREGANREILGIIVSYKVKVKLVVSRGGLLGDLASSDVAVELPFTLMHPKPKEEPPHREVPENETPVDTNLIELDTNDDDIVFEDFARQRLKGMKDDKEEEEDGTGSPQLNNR

B1: β1AR6P (turkey β1AR construct β83 ligated by sortase A to the phosphopeptide V2R6P) (receptor)
chain: not shown
modifications: six phosphoresidues in the V2R6P part: GGGDE[pS]A[pT][pT]A[pS][pS][pS]LAKDTSS
Question: Does B1 bind?
Answer: Result: binds
